Measurements: FireProtDB (doi:10.1021/bi00200a042)

Settings: Saccharomyces cerevisiae (strain ATCC 204508 / S288c); pH 7; 25 °C; GdnHCl; Fluorescence; Potassium phosphate 0.1 M; reversible: yes; structure 1YCC

Sequence of Cytochrome c isoform 1 R44A|C108A, P00044 R44A C108A (P00044 whole entry R44A/C108A, canonical isoform): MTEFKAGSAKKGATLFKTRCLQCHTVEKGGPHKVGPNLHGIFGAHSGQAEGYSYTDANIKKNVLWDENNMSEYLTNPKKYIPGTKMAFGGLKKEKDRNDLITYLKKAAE
Sequence of Cytochrome c isoform 1 R44A|N58I|C108A, P00044 R44A N58I C108A (P00044 whole entry R44A/N58I/C108A, canonical isoform): as the sequence (P00044 whole entry R44A/C108A, canonical isoform) above, with N58I counted along it
Sequence of Cytochrome c isoform 1 F88S|C108A, P00044 F88S C108A (P00044 whole entry F88S/C108A, canonical isoform): as the sequence (P00044 whole entry R44A/C108A, canonical isoform) above, with A44R, F88S counted along it
Sequence of Cytochrome c isoform 1 C108A, P00044 (P00044 whole entry C108A, canonical isoform): as the sequence (P00044 whole entry R44A/C108A, canonical isoform) above, with A44R counted along it
Sequence of Cytochrome c isoform 1 R44A|N58I|F88S|C108A, P00044 R44A N58I F88S C108A (P00044 whole entry R44A/N58I/F88S/C108A, canonical isoform): as the sequence (P00044 whole entry R44A/C108A, canonical isoform) above, with N58I, F88S counted along it
Sequence of Cytochrome c isoform 1 N58I|F88S|C108A, P00044 N58I F88S C108A (P00044 whole entry N58I/F88S/C108A, canonical isoform): as the sequence (P00044 whole entry R44A/C108A, canonical isoform) above, with A44R, N58I, F88S counted along it
Sequence of Cytochrome c isoform 1 N58I|C108A, P00044 N58I C108A (P00044 whole entry N58I/C108A, canonical isoform): as the sequence (P00044 whole entry R44A/C108A, canonical isoform) above, with A44R, N58I counted along it

Cytochrome c isoform 1 F88S|C108A, P00044 F88S C108A
denaturant m value: 3.8 kcal/mol/M | denaturant midpoint (higher = more stable): 0.9 M | unfolding free energy: 3.5 kcal/mol

Cytochrome c isoform 1 R44A|N58I|F88S|C108A, P00044 R44A N58I F88S C108A
denaturant m value: 3.6 kcal/mol/M | denaturant midpoint (higher = more stable): 1.7 M | unfolding free energy: 6.2 kcal/mol

Cytochrome c isoform 1 C108A, P00044
denaturant m value: 3.9 kcal/mol/M | denaturant midpoint (higher = more stable): 1.3 M | unfolding free energy: 5 kcal/mol

Cytochrome c isoform 1 R44A|C108A, P00044 R44A C108A
denaturant m value: 3 kcal/mol/M | denaturant midpoint (higher = more stable): 1.4 M | unfolding free energy: 3.8 kcal/mol

Cytochrome c isoform 1 N58I|F88S|C108A, P00044 N58I F88S C108A
denaturant m value: 3.2 kcal/mol/M | denaturant midpoint (higher = more stable): 1.7 M | unfolding free energy: 5.5 kcal/mol

Cytochrome c isoform 1 N58I|C108A, P00044 N58I C108A
denaturant m value: 4.2 kcal/mol/M | denaturant midpoint (higher = more stable): 2.1 M | unfolding free energy: 9 kcal/mol

Cytochrome c isoform 1 R44A|N58I|C108A, P00044 R44A N58I C108A
denaturant m value: 3.8 kcal/mol/M | denaturant midpoint (higher = more stable): 2.1 M | unfolding free energy: 8.2 kcal/mol
